Laboratory results published in US10702592B2, “Peptides and combination of peptides for use in immunotherapy against NHL and other cancers” (Immatics Biotechnologies GmbH, priority 2016, dated 2020).

Biological target: HLA-A*02:01 (Homo sapiens, UniProt P04439, D140Y/D185E/D98H/E176V/E277Q/G131W/G231S/I119V/I121R/I166T/I218V/L300P/L318F/N151K/N90K/P208A/P217A/Q86G/Q94H/R138H/R169H/T345S)
Assay: MHC binding assay (UV-ligand exchange, beta2m ELISA)
Details: binding to HLA-A*02:01, UV-ligand exchange
Summary of the method: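 Binding capacity is expressed as the yield of UV-mediated ligand exchange, reflecting how well each peptide stabilizes peptide-receptive MHC. Stabilized complexes are read out by anti-β2m HRP ELISA (450 nm) after streptavidin capture, with refolded MLA-001 monomer standards for quantitation.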

Row | Substance | Peptide exchange (MHC class I binding score, peptide exchange yield)
1 | 135 (ALTGLQFQL; listed as Homo sapiens) [compound 135] | “+++” (≥50 = +++)
2 | 213 (YINEDEYEV; listed as Homo sapiens) [compound 213] | “++” (≥20% = ++)
3 | 131 (VLIEETDQL; listed as Homo sapiens) [compound 131] | “++” (≥20% = ++)
4 | 168 (SLLSPLLSV; listed as Homo sapiens) [compound 168] | “+++” (≥50 = +++)
5 | 298 (ALTDVILCV; listed as Homo sapiens) [compound 298] | “++++” (≥75% = ++++)
6 | 6 (TLITLPLLFL; listed as Homo sapiens) [compound 6] | “+++” (≥50 = +++)
7 | 157 (KVLEFLAKV; listed as Homo sapiens) [compound 157] | “+++” (≥50 = +++)
8 | 75 (AALKYIPSV; listed as Homo sapiens) [compound 75] | “+++” (≥50 = +++)
9 | 109 (YLFQFSAAL; listed as Homo sapiens) [compound 109] | “+++” (≥50 = +++)
10 | 174 (VLVEITDVDFAA; listed as Homo sapiens) [compound 174] | “++++” (≥75% = ++++)
11 | 243 (GLPDLDIYL; listed as Homo sapiens) [compound 243] | “++++” (≥75% = ++++)
12 | 265 (ILWHFVASL; listed as Homo sapiens) [compound 265] | “++++” (≥75% = ++++)
13 | 305 (AMLAQQMQL; listed as Homo sapiens) [compound 305] | “+++” (≥50 = +++)
14 | 114 (GLSDISPST; listed as Homo sapiens) [compound 114] | “++” (≥20% = ++)
15 | 237 (YLDRLIPQA; listed as Homo sapiens) [compound 237] | “+++” (≥50 = +++)
16 | 146 (GLLQQPPAL; listed as Homo sapiens) [compound 146] | “+++” (≥50 = +++)
17 | 70 (VLIEILQKA; listed as Homo sapiens) [compound 70] | “++++” (≥75% = ++++)
18 | 294 (KLYGPEGLELV; listed as Homo sapiens) [compound 294] | “++++” (≥75% = ++++)
19 | 277 (FLIDLNSTHGTFL; listed as Homo sapiens) [compound 277] | “+++” (≥50 = +++)
20 | 221 (FLAPDNSLLLA; listed as Homo sapiens) [compound 221] | “++++” (≥75% = ++++)

Row | Substance | Peptide exchange (MHC class I binding score, peptide exchange yield)
21 | 268 (VLFPLPTPL; listed as Homo sapiens) [compound 268] | “++++” (≥75% = ++++)
22 | 153 (KLLKGIYAI; listed as Homo sapiens) [compound 153] | “+++” (≥50 = +++)
23 | 234 (NLQRTVVTV; listed as Homo sapiens) [compound 234] | “++” (≥20% = ++)
24 | 147 (GLSEYQRNFL; listed as Homo sapiens) [compound 147] | “+++” (≥50 = +++)
25 | 64 (FLVEVSNDV; listed as Homo sapiens) [compound 64] | “++++” (≥75% = ++++)
26 | 233 (MLEVHIPSV; listed as Homo sapiens) [compound 233] | “+++” (≥50 = +++)
27 | 194 (SLAPFDREPFTL; listed as Homo sapiens) [compound 194] | “++” (≥20% = ++)
28 | 229 (ILSPWGAEV; listed as Homo sapiens) [compound 229] | “++++” (≥75% = ++++)
29 | 223 (FLQDIPDGLFL; listed as Homo sapiens) [compound 223] | “++” (≥20% = ++)
30 | 308 (SLLDQIPEM; listed as Homo sapiens) [compound 308] | “+++” (≥50 = +++)
31 | 178 (YVLQGEFFL; listed as Homo sapiens) [compound 178] | “+++” (≥50 = +++)
32 | 136 (FIFGIVHLL; listed as Homo sapiens) [compound 136] | “+++” (≥50 = +++)
33 | 23 (ALVEDIINL; listed as Homo sapiens) [compound 23] | “++++” (≥75% = ++++)
34 | 272 (KLDHTLSQI; listed as Homo sapiens) [compound 272] | “++++” (≥75% = ++++)
35 | 227 (IIAEGIPEA; listed as Homo sapiens) [compound 227] | “++” (≥20% = ++)
36 | 18 (KLTDQPPLV; listed as Homo sapiens) [compound 18] | “+++” (≥50 = +++)
37 | 259 (TVLDGLEFKV; listed as Homo sapiens) [compound 259] | “++++” (≥75% = ++++)
38 | 193 (SLADSMPSL; listed as Homo sapiens) [compound 193] | “++” (≥20% = ++)
39 | 162 (RLADLKVSI; listed as Homo sapiens) [compound 162] | “++++” (≥75% = ++++)
40 | 158 (KVQDVLHQV; listed as Homo sapiens) [compound 158] | “+++” (≥50 = +++)

Further lines, results first:

Row | Peptide exchange (MHC class I binding score, peptide exchange yield) | Substance
41 | “+++” (≥50 = +++) | 167 (SLFSITKSV; listed as Homo sapiens) [compound 167]
42 | “++++” (≥75% = ++++) | 77 (ALLDVSNNYGI; listed as Homo sapiens) [compound 77]
43 | “+++” (≥50 = +++) | 96 (LLLNENESLFL; listed as Homo sapiens) [compound 96]
44 | “++++” (≥75% = ++++) | 270 (VVVDSDSLAFV; listed as Homo sapiens) [compound 270]
45 | “+++” (≥50 = +++) | 214 (FLFDGSMSL; listed as Homo sapiens) [compound 214]
46 | “+++” (≥50 = +++) | 140 (FLFEDFVEV; listed as Homo sapiens) [compound 140]
47 | “+++” (≥50 = +++) | 128 (KLFDASPTFFA; listed as Homo sapiens) [compound 128]
48 | “+++” (≥50 = +++) | 125 (FVAPPTAAV; listed as Homo sapiens) [compound 125]
49 | “+++” (≥50 = +++) | 141 (FLGELTLQL; listed as Homo sapiens) [compound 141]
50 | “+++” (≥50 = +++) | 191 (GLSDISAQV; listed as Homo sapiens) [compound 191]
51 | “+++” (≥50 = +++) | 148 (ICAGHVPGV; listed as Homo sapiens) [compound 148]
52 | “+++” (≥50 = +++) | 118 (VLDGMIYAI; listed as Homo sapiens) [compound 118]
53 | “+++” (≥50 = +++) | 112 (FLAILPEEV; listed as Homo sapiens) [compound 112]
54 | “+++” (≥50 = +++) | 311 (YLHRQVAAV; listed as Homo sapiens) [compound 311]
55 | “++” (≥20% = ++) | 202 (ALAAGGYDV; listed as Homo sapiens) [compound 202]
56 | “++” (≥20% = ++) | 188 (GLEDEMYEV; listed as Homo sapiens) [compound 188]
57 | “++++” (≥75% = ++++) | 69 (TLLAFPLLL; listed as Homo sapiens) [compound 69]
58 | “+++” (≥50 = +++) | 180 (GILQLVESV; listed as Homo sapiens) [compound 180]
59 | “+++” (≥50 = +++) | 235 (SLDVYELFL; listed as Homo sapiens) [compound 235]
60 | “++++” (≥75% = ++++) | 282 (YLLEQGAQV; listed as Homo sapiens) [compound 282]
61 | “+++” (≥50 = +++) | 88 (GLFDNRSGLPEA; listed as Homo sapiens) [compound 88]
62 | “++++” (≥75% = ++++) | 49 (TILGDPQILL; listed as Homo sapiens) [compound 49]
63 | “+++” (≥50 = +++) | 155 (KLMTSLVKV; listed as Homo sapiens) [compound 155]
64 | “++++” (≥75% = ++++) | 110 (YQYPFVLGL; listed as Homo sapiens) [compound 110]
65 | “+++” (≥50 = +++) | 123 (ALLSAFVQL; listed as Homo sapiens) [compound 123]
66 | “+++” (≥50 = +++) | 142 (FLYEDSKSVRL; listed as Homo sapiens) [compound 142]
67 | “+++” (≥50 = +++) | 222 (FLIETGTLL; listed as Homo sapiens) [compound 222]
